Data: publication PMC5774872

B1: unnamed (parent)
chain 1: MAAQNEQRPERIKTTPYLEGDVLSSDSGPLLSVFALQEIMQKVRQVQADYMTATREVDFTVPDVQQILDDIKALAAAQVYKIVKVPSTSFRHIVTQSRDRVLRVDTYYEEMSQVGDVITEDEPEKFYSTIIKKVRFIRGKGSFILHDIPARDHRGMEVAEPEVLGVEFKNVLPVLTAEHRAMIQNALDGSIIENGNVATRDVDVFIGACSEPFYRIYNRFQGYIEAVQLQELRNSIGWLERLGQRKRITYSQEVLTDFRRQDMIWVLALQLPVNPQVVWDVPRSSIANLIMNIATCLPTGEYIAPNPRISSITLTQRITTTGPFAILTGSTPTAQQLNDVRKIYLALMFPGQIILDLKIDPGERMDPAVRMVAGVVGHLLFTAGGRFTNLTQNMARQLDIALNDYLLYMYNTRVQVNYGPTGEPLDFQIGRNQYDCNVFRADFATGTGYNGWATIDVEYRDPAPYVHAQRYIRYCGIDSRELINPTTYGIGMTYHCYNEMLRMLVAAGKDSEAAYFRSMLPFHMVRFARINQIINEDLHSVFSLPDDMFNALLPDLIAGAHQNADPVVLDVSWISLWFAFNRSFEPTHRNEMLEIAPLIESVYASELSVMKVDMRHLSLMQRRFPDVLIQARPSHFWKAVLNDSPEAVKAVMNLSHSHNFINIRDMMRWVLLPSLQPSLKLVLEEEAWAAANDFEDLMLTDQVYMHRDMLPEPRLDDIERFRQEGFYYTNMLEAPPEIDRVVQYTYEIARLQANMGQFRAALRRIMDDDDWIGFGGVLRTVRVKFFDARPPDDILQGLPFSYDTNEKGGLSYATIKYATETTIFYLIYNVEFSNTPDSLVLINPTYTMTKVFINKRIVERVRVGQILAVLNRRFVAYKGKMRIMDITQSLKMGTKLAAPTV
chain 2: MSAAILLAPGDVIKRSSEELKQRQIQINLVDWMESEGGKEDKTEPKEESKAEGSKDGEGTQSESGQKEEGGKETKDADVDRRIHTAVGSGSGTKGSGERANENANRGDGKVGGGGGDADAGVGATGTNGGRWVVLTEEIARAIESKYGTKIDVYRDEVPAQIIEVERSLQKELGISREGVAEQTERLRDLRRKEKNGTHAKAVERGGRKQRKKAHGDAQREGVEEEKTSEEPARIGITIEGVMSQKKLLSMIGGVERKMAPIGARESAVMLVSNSIKDVVRATAYFTAPTGDPHWKEVAREASKKKNILAYTSTGGDVKTEFLHLIDHL
B2: unnamed (parent)
chain 1: B1 chain 2
chain 2: B1 chain 1

Variants of: B1
Test: coimmunoprecipitation (IP anti-Flag MAb), immunoblot gray-value analysis
Settings: with partner chain of the complex shown, five experiments, means ± SDs, parent: 100, read off a plot

Variant | percent of parent
chain 2 MSAAILLAPGDVIKRSSEELKQRQIQINLVDWMESEGGKEDKTEPKEESKAEGSKDGEGTQSESGQKEEGGKETKDADVDRRIHTAVGSGSGTKGSGERANENANRGDGKVGGGGGDADAGVGATGTNGGRWVVLTEEIARAIESKYGTKIDVYRDEVPAQIIEVERSLQKELGISREGVAEQTERLRDLRRKEKNGTHAKAVERGGRKQRKKAHGDAQREGVEEEKTSEEPARIGITIEGVMSQKKLLSMIGGVERKMAPIGARESAVMLVSNSIKDVVAATAAATAPTGDPHWKEVAREASKKKNILAYTSTGGDVKTEFLHLIDHL [chain 2 R281A Y285A F286A] | 2 % of WT
chain 2 MSAAILLAPGDVIKRSSEELKQRQIQINLVDWMESEGGKEDKTEPKEESKAEGSKDGEGTQSESGQKEEGGKETKDADVDRRIHTAVGSGSGTKGSGERANENANRGDGKVGGGGGDADAGVGATGTNGGRWVVLTEEIARAIESKYGTKIDVYRDEVPAQIIEVERSLQKELGISREGVAEQTERLRDLRRKEKNGTHAKAVERGGRKQRKKAHGDAQREGVEEEKTSEEPARIGITIEGVMSQKKLLSMIGGVERKMAPIGARESAVMLVSNSIKDVVRATAAFTAPTGDPHWKEVAREASKKKNILAYTSTGGDVKTEFLHLIDHL [chain 2 Y285A] | 1 % of WT
chain 2 MSAAILLAPGDVIKRSSEELKQRQIQINLVDWMESEGGKEDKTEPKEESKAEGSKDGEGTQSESGQKEEGGKETKDADVDRRIHTAVGSGSGTKGSGERANENANRGDGKVGGGGGDADAGVGATGTNGGRWVVLTEEIARAIESKYGTKIDVYRDEVPAQIIEVERSLQKELGISREGVAEQTERLRDLRRKEKNGTHAKAVERGGRKQRKKAHGDAQREGVEEEKTSEEPARIGITIEGVMSQKKLLSMIGGVERKMAPIGARESAVMLVSNSIKDVVAATAAFTAPTGDPHWKEVAREASKKKNILAYTSTGGDVKTEFLHLIDHL [chain 2 R281A Y285A] | 4 % of WT
chain 2 MSAAILLAPGDVIKRSSEELKQRQIQINLVDWMESEGGKEDKTEPKEESKAEGSKDGEGTQSESGQKEEGGKETKDADVDRRIHTAVGSGSGTKGSGERANENANRGDGKVGGGGGDADAGVGATGTNGGRWVVLTEEIARAIESKYGTKIDVYRDEVPAQIIEVERSLQKELGISREGVAEQTERLRDLRRKEKNGTHAKAVERGGRKQRKKAHGDAQREGVEEEKTSEEPARIGITIEGVMSQKKLLSMIGGVERKMAPIGARESAVMLVSNSIKDVVRGTGYFTAPTGDPHWKEVAREASKKKNILAYTSTGGDVKTEFLHLIDHL [chain 2 A282G A284G] | 45 % of WT
chain 2 MSAAILLAPGDVIKRSSEELKQRQIQINLVDWMESEGGKEDKTEPKEESKAEGSKDGEGTQSESGQKEEGGKETKDADVDRRIHTAVGSGSGTKGSGERANENANRGDGKVGGGGGDADAGVGATGTNGGRWVVLTEEIARAIESKYGTKIDVYRDEVPAQIIEVERSLQKELGISREGVAEQTERLRDLRRKEKNGTHAKAVERGGRKQRKKAHGDAQREGVEEEKTSEEPARIGITIEGVMSQKKLLSMIGGVERKMAPIGARESAVMLVSNSIKDVVRATAYATAPTGDPHWKEVAREASKKKNILAYTSTGGDVKTEFLHLIDHL [chain 2 F286A] | 57 % of WT
chain 2 MSAAILLAPGDVIKRSSEELKQRQIQINLVDWMESEGGKEDKTEPKEESKAEGSKDGEGTQSESGQKEEGGKETKDADVDRRIHTAVGSGSGTKGSGERANENANRGDGKVGGGGGDADAGVGATGTNGGRWVVLTEEIARAIESKYGTKIDVYRDEVPAQIIEVERSLQKELGISREGVAEQTERLRDLRRKEKNGTHAKAVERGGRKQRKKAHGDAQREGVEEEKTSEEPARIGITIEGVMSQKKLLSMIGGVERKMAPIGARESAVMLVSNSIKDVVAATAYATAPTGDPHWKEVAREASKKKNILAYTSTGGDVKTEFLHLIDHL [chain 2 R281A F286A] | 19 % of WT
chain 2 MSAAILLAPGDVIKRSSEELKQRQIQINLVDWMESEGGKEDKTEPKEESKAEGSKDGEGTQSESGQKEEGGKETKDADVDRRIHTAVGSGSGTKGSGERANENANRGDGKVGGGGGDADAGVGATGTNGGRWVVLTEEIARAIESKYGTKIDVYRDEVPAQIIEVERSLQKELGISREGVAEQTERLRDLRRKEKNGTHAKAVERGGRKQRKKAHGDAQREGVEEEKTSEEPARIGITIEGVMSQKKLLSMIGGVERKMAPIGARESAVMLVSNSIKDVVAATAYFTAPTGDPHWKEVAREASKKKNILAYTSTGGDVKTEFLHLIDHL [chain 2 R281A] | 130 % of WT
chain 2 MSAAILLAPGDVIKRSSEELKQRQIQINLVDWMESEGGKEDKTEPKEESKAEGSKDGEGTQSESGQKEEGGKETKDADVDRRIHTAVGSGSGTKGSGERANENANRGDGKVGGGGGDADAGVGATGTNGGRWVVLTEEIARAIESKYGTKIDVYRDEVPAQIIEVERSLQKELGISREGVAEQTERLRDLRRKEKNGTHAKAVERGGRKQRKKAHGDAQREGVEEEKTSEEPARIGITIEGVMSQKKLLSMIGGVERKMAPIGARESAVMLVSNSIKDVVRATAAATAPTGDPHWKEVAREASKKKNILAYTSTGGDVKTEFLHLIDHL [chain 2 Y285A F286A] | 2 % of WT

Variants of: B2
Test: coimmunoprecipitation (IP anti-HA MAb), immunoblot gray-value analysis
Settings: with partner chain of the complex shown, five experiments, means ± SDs, parent: 100, read off a plot

Variant | percent of parent
chain 1 MSAAILLAPGDVIKRSSEELKQRQIQINLVDWMESEGGKEDKTEPKEESKAEGSKDGEGTQSESGQKEEGGKETKDADVDRRIHTAVGSGSGTKGSGERANENANRGDGKVGGGGGDADAGVGATGTNGGRWVVLTEEIARAIESKYGTKIDVYRDEVPAQIIEVERSLQKELGISREGVAEQTERLRDLRRKEKNGTHAKAVERGGRKQRKKAHGDAQREGVEEEKTSEEPARIGITIEGVMSQKKLLSMIGGVERKMAPIGARESAVMLVSNSIKDVVRATAAATAPTGDPHWKEVAREASKKKNILAYTSTGGDVKTEFLHLIDHL [chain 1 Y285A F286A] | 2 % of WT
chain 1 MSAAILLAPGDVIKRSSEELKQRQIQINLVDWMESEGGKEDKTEPKEESKAEGSKDGEGTQSESGQKEEGGKETKDADVDRRIHTAVGSGSGTKGSGERANENANRGDGKVGGGGGDADAGVGATGTNGGRWVVLTEEIARAIESKYGTKIDVYRDEVPAQIIEVERSLQKELGISREGVAEQTERLRDLRRKEKNGTHAKAVERGGRKQRKKAHGDAQREGVEEEKTSEEPARIGITIEGVMSQKKLLSMIGGVERKMAPIGARESAVMLVSNSIKDVVRATAYATAPTGDPHWKEVAREASKKKNILAYTSTGGDVKTEFLHLIDHL [chain 1 F286A] | 18 % of WT
chain 1 MSAAILLAPGDVIKRSSEELKQRQIQINLVDWMESEGGKEDKTEPKEESKAEGSKDGEGTQSESGQKEEGGKETKDADVDRRIHTAVGSGSGTKGSGERANENANRGDGKVGGGGGDADAGVGATGTNGGRWVVLTEEIARAIESKYGTKIDVYRDEVPAQIIEVERSLQKELGISREGVAEQTERLRDLRRKEKNGTHAKAVERGGRKQRKKAHGDAQREGVEEEKTSEEPARIGITIEGVMSQKKLLSMIGGVERKMAPIGARESAVMLVSNSIKDVVRGTGYFTAPTGDPHWKEVAREASKKKNILAYTSTGGDVKTEFLHLIDHL [chain 1 A282G A284G] | 42 % of WT
chain 1 MSAAILLAPGDVIKRSSEELKQRQIQINLVDWMESEGGKEDKTEPKEESKAEGSKDGEGTQSESGQKEEGGKETKDADVDRRIHTAVGSGSGTKGSGERANENANRGDGKVGGGGGDADAGVGATGTNGGRWVVLTEEIARAIESKYGTKIDVYRDEVPAQIIEVERSLQKELGISREGVAEQTERLRDLRRKEKNGTHAKAVERGGRKQRKKAHGDAQREGVEEEKTSEEPARIGITIEGVMSQKKLLSMIGGVERKMAPIGARESAVMLVSNSIKDVVAATAYFTAPTGDPHWKEVAREASKKKNILAYTSTGGDVKTEFLHLIDHL [chain 1 R281A] | 100 % of WT
chain 1 MSAAILLAPGDVIKRSSEELKQRQIQINLVDWMESEGGKEDKTEPKEESKAEGSKDGEGTQSESGQKEEGGKETKDADVDRRIHTAVGSGSGTKGSGERANENANRGDGKVGGGGGDADAGVGATGTNGGRWVVLTEEIARAIESKYGTKIDVYRDEVPAQIIEVERSLQKELGISREGVAEQTERLRDLRRKEKNGTHAKAVERGGRKQRKKAHGDAQREGVEEEKTSEEPARIGITIEGVMSQKKLLSMIGGVERKMAPIGARESAVMLVSNSIKDVVRATAAFTAPTGDPHWKEVAREASKKKNILAYTSTGGDVKTEFLHLIDHL [chain 1 Y285A] | 7 % of WT
chain 1 MSAAILLAPGDVIKRSSEELKQRQIQINLVDWMESEGGKEDKTEPKEESKAEGSKDGEGTQSESGQKEEGGKETKDADVDRRIHTAVGSGSGTKGSGERANENANRGDGKVGGGGGDADAGVGATGTNGGRWVVLTEEIARAIESKYGTKIDVYRDEVPAQIIEVERSLQKELGISREGVAEQTERLRDLRRKEKNGTHAKAVERGGRKQRKKAHGDAQREGVEEEKTSEEPARIGITIEGVMSQKKLLSMIGGVERKMAPIGARESAVMLVSNSIKDVVAATAYATAPTGDPHWKEVAREASKKKNILAYTSTGGDVKTEFLHLIDHL [chain 1 R281A F286A] | 1 % of WT
